Laboratory results: IntAct's records for PubMed 11801737

B1: Protein phosphatase 1 regulatory subunit SDS22 (Saccharomyces cerevisiae), P36047 (parent)
chain: MDKNSVNKDSEEKDERHKIEVVDDTNPDFITADSELTQDLPDDVEVIDLVHLKIKSLEDLNLYRFKNLKQLCLRQNLIESISEVEVLPHDKIVDLDFYDNKIKHISSNVNKLTKLTSLDLSFNKIKHIKNLENLTDLENLYFVQNSISKIENLSTLKSLKNLELGGNKVHSIEPDSFEGLSNLEEIWLGKNSIPRLINLHPLKNLKILSIQSNKLKKIENLEELTNLEELYLSHNFITKIEGLEKNLKLTTLDVTSNKITSLENLNHLSNLTDIWASFNKIDQSFESLGENLSALSRLETIYLEGNPIQLENKTSYRRKLTMNLPPSLQKIDATYIRG

Variants of: B1
Settings: with pp12_yeast GLC7, P32598
Sequence of pp12_yeast GLC7, P32598 (P32598 whole entry): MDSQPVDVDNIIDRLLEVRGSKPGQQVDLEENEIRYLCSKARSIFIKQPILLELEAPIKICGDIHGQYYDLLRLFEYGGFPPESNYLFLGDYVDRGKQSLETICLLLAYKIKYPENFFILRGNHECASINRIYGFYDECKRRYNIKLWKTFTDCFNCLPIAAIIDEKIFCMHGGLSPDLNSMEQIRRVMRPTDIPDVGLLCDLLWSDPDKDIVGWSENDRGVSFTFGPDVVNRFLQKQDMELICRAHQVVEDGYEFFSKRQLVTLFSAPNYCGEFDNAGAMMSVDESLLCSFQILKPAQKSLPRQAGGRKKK

Row | effect of a mutation on the interaction | Variant
1 | decreasing interaction strength | I54T;I193T
